Laboratory results published in PMC2649783.

Molecular target: HUαβ (Escherichia coli (overexpressed in …, UniProt P0ACF0;P0ACF4 1-90;1-90))
Experiment: ITC

Chain of HUαβ (Escherichia coli (P0ACF0 whole entry, chain 1 of 2): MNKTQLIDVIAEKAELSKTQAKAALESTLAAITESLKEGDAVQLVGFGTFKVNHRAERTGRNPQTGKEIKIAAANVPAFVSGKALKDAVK
Chain of HUαβ (Escherichia coli (P0ACF4 whole entry, chain 2 of 2): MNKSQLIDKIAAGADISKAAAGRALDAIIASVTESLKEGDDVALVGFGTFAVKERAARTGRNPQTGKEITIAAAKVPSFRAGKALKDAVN

B1: 38 bp DNA (dsDNA)
DNA 1: CGGTCAGTTCAAGCCCTTCTAAGTTTGTAGACACCAGC
DNA 2: GCTGGTGTCTACAAACTTAGAAGGGCTTGAACTGACCG
binding result: binds
